# Measured values: patent US11124558B2, “Use of tetranectin and peptide agonists to treat inflammatory diseases” (The Feinstein Institutes for Medical Research, priority 2017, dated 2021)
# Entries after “also recorded” stand apart in the source; their conditions may differ. Non-standard residues stand in square brackets, D forms with d. No end group written: not given here. Nle = CCCC[C@H](N)C(=O)O
# B1: P12: Recombinant N-terminal deletion mutant of TN, residue 45-181, carbohydrate recognition domain (CRD), expressed in E. coli, SEQ ID NO:12 (protein, listed as Homo sapiens)
# chain: ALQTVCLKGTKVHMKCFLAFTQTKTFHEASEDCISRGGTLGTPQTGSENDALYEYLRQSVGNEAEIWLGLNDMAAEGTWVDMTGARIAYKNWETEITAQPDGGKTENCAVLSGAANGKWFDKRCRDQLPYICQFGIV
# What was measured:
# [1] = system: lethal sepsis (CLP), Balb/C mice; test: Lethal sepsis by cecal ligation and puncture (CLP), survival in mice; type: in vivo; conditions: male Balb/C mice, given intraperitoneally, survival monitored more than two weeks
# Description: FIG. 6A-6C: Recombinant TN protected mice against lethal endotoxemia and sepsis. Male Balb/C mice were subjected to lethal endotoxemia (LPS, 5 mg/kg, i.p., Panel A) or sepsis by cecal ligation and puncture (CLP, Panel B, C), and recombinant TN produced in HEK293 (Panel A, B) or E. coli (Panel C) was given intraperitoneally at indicated dosing regimens. Animal survival rates were monitored for more than two weeks to ensure no later death. Shown in Panel B and C is a summary of two independent experiments with similar results.
# (§1) FIG. 9: N-terminal deletion TN mutant protected mice against lethal sepsis. Male Balb/C mice were subjected to lethal sepsis by cecal ligation and puncture (CLP), and recombinant deletion mutant (ΔTN) was given intrapeitoneally at indicated dosing regimens. Animal survival rates were monitored for more than two weeks to ensure no later death. Shown was a summary of two independent experiments with similar results.
# as §1, with “10:” for “9: N-terminal deletion”, “peptide agonist (P11)” for “mutant”, “TN peptide agonist, (P11, […]) (SEQ ID NO:11)” for “recombinant deletion mutant (ΔTN)”, “N=8-18 animals per group.” for “similar results.”
# FIG. 13A-13B: Tetranectin peptide agonists (P2 and P2-M/Nle) protected mice against lethal sepsis. Male Balb/C mice were subjected to lethal sepsis by cecal ligation and puncture (CLP), and TN peptide agonist, P2 (55-KVHMKCFLAFTQTKTF-70) (13A) (SEQ ID NO:2) or P2-M/Nle (54-TKVH(Nle)KSFLAFTQTKT-69) (13B) (SEQ ID NO:13) was given intraperitoneally at indicated dosing regimens. Animal survival rates were monitored for more than two weeks to ensure no later death. Shown was a summary of independent experiment with N=10 animals per group. The Kaplan-Meier method was used to compare the difference in mortality rates between groups. *, P<0.05 versus “CLP+Vehicle” group.
# Effects of TN or peptide agonist on LSI. Balb/C mice (both male and female, 7-8 weeks, 20-25 g) are subjected to lethal endotoxemia or sepsis as described above, and the recombinant TN is injected (i.p.) at various doses and time points (2, 24, and 48 h) after the onset of endotoxemia or sepsis. Their effects on the outcomes of LSI is assessed by comparing the long-term (two-week) survival rates between the TN-treated groups with saline vehicle-treated controls. By varying the time points (e.g., 2, 12, 24 or 36 h) when the first dose of TN will be given to animals, the therapeutic windows for the TN-based therapy is estimated. […] It will be critical to continue these exciting experiments using other dosing regimens to further validate TN's protective role in LSI.
# To explore the therapeutic potential of the TN-based strategies, the efficacy of TN-specific peptide agonists that would recapitulate the HMGB1-inhibiting capacities is tested using both animal models of lethal endotoxemia and sepsis. A series of peptide agonists have been designed, and chemically synthesized or biologically expressed as recombinant peptide (Table 1, FIG. 7). Peptide agonists will be given to the endotoxemic or septic mice intraperitoneally at various doses and time points after the onset of endotoxemia or sepsis. Their effects on the outcomes of LSI is assessed by comparing the long-term (two-week) survival rates between the peptide agonist groups and the saline vehicle-treated controls.
# TN-specific peptide agonists are tested that would recapitulate the HMGB1-inhibiting capacities using both animal models of lethal endotoxemia and sepsis. Peptide agonists are given to the endotoxemic or septic mice intraperitoneally at various doses and time points after the onset of endotoxemia or sepsis. […]
# HMGB1 release = test: LPS/SAA-induced HMGB1 release, summary statement (cells not specified); type: cell-based
# [2] = system: GRO/CXCL1 and ENA-78/CXCL5 secretion, HuPBMCs; test: Cytokine/chemokine secretion by HuPBMCs (Cytokine Antibody Arrays); type: cell-based; conditions: primary human monocytes / HuPBMCs, TN 20 μg/ml, 16 h
# Description: Human blood was purchased from the Long Island Blood Bank, and HuPBMCs were isolated by density gradient centrifugation through Ficoll, and stimulated with recombinant TN (20 μg/ml) expressed in HEK293 or E. coli for 16 h. The extracellular levels of cytokines and chemokines were determined by Cytokine Antibody Arrays.
# In light of the protective roles of these neutrophil-attracting chemokines, CXCL1/KC [67,68] and CXCL5/ENA-78 [69,70] in LSI, it is important to determine whether TN could modulate leukocyte infiltration to facilitate potential pathogen elimination during sepsis.
# [3] = system: HMGB1 release, murine macrophage-like RAW264.7 cells; test: SAA-induced HMGB1 release in RAW264.7 cells (Western blotting); type: cell-based; conditions: 16 h, serum-free OPTI-MEM I
# Description: Murine macrophage-like RAW264.7 cells were cultured in serum-free OPTI-MEM I medium, and stimulated with SAA in the absence of presence of ΔTN (residue 45-181) for 16 h at the indicated concentrations. The extracellular HMGB1 levels were determined by Western blotting, and expressed as % of stimulation in the presence of SAA alone.
Molecule,protection against lethal sepsis (animal survival) [1],attenuation of LPS/SAA-induced HMGB1 release (HMGB1 release),protection against lethal sepsis (animal survival) ([1]; listed as synthetic peptide corresponding to the plasminogen-binding region (residue 143-1)),release of neutrophil-attracting chemokines (CXCL1/GRO-α/KC and CXCL5/ENA-78) [2],protection against lethal sepsis (animal survival) ([1]; listed as N-terminal deletion mutant of TN),protection against lethal sepsis (animal survival) ([1]; listed as ΔTN),inhibition of SAA-induced HMGB1 release [3],inhibition of SAA-induced HMGB1 release ([3]; listed as ΔTN)
KVHMKCFLAFTQTKTF (listed as Homo sapiens) [Peptide P2],protected,,,,,,,
QPDGGKTENCAVLSGAANGKWFDKRCRD (listed as Homo sapiens) [Peptide P11],protected; also recorded: significant protection,dose-dependently attenuated,dose-dependent and significant protection,specifically stimulated,,,,
TKVH(Nle)KSFLAFTQTKT (TKVH[Nle]KSFLAFTQTKT) [P2-M/Nle],protected,,,,,,,
B1,significant protection,dose-dependently attenuated,,specifically stimulated,significant protection,protected,dose-dependently attenuated,dose-dependently inhibited
